According to PMC7502484:

Molecular target: human PTH1R in transiently transfected COS-7 cell membranes (human) (UniProt Q03431)
Assay: radioligand binding

Chain of UniProt Q03431 (Q03431 27-593): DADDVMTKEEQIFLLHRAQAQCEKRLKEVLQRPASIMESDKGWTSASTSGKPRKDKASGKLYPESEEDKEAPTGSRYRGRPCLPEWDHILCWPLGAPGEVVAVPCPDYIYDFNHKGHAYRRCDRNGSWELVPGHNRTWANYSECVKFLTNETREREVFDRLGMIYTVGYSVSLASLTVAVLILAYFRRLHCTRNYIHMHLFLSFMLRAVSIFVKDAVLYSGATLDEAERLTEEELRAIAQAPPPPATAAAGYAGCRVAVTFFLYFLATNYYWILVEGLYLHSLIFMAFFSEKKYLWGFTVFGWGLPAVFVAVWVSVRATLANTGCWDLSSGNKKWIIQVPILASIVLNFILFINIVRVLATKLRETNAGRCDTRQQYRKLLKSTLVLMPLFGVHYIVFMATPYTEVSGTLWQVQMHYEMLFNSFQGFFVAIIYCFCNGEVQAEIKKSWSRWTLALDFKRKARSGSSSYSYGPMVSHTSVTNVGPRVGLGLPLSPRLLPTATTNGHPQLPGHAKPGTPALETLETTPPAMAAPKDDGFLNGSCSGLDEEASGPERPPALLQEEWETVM

IC50: 0.0137 µM
Substance: PTH(1–34)^H9A (peptide)
